From publication doi:10.1101/2025.05.01.651538 (2025) come the findings set out here.

The target in test [1] is wild-type unmodified 147bp nucleosome (nucleosome core particle, human histones) (human).
Test [2] concerns the target wild-type 185bp nucleosome (nucleosome with symmetric flanking DNA, human histones) (human).

B1: KDM5A^CAT (KDM5A 1–801, minimal catalytically active construct) (domain or fragment)
chain: MAGVGPGGYAAEFVPPPECPVFEPSWEEFTDPLSFIGRIRPLAEKTGICKIRPPKDWQPPFACEVKSFRFTPRVQRLNELEAMTRVRLDFLDQLAKFWELQGSTLKIPVVERKILDLYALSKIVASKGGFEMVTKEKKWSKVGSRLGYLPGKGTGSLLKSHYERILYPYELFQSGVSLMGVQMPNLDLKEKVEPEVLSTDTQTSPEPGTRMNILPKRTRRVKTQSESGDVSRNTELKKLQIFGAGPKVVGLAMGTKDKEDEVTRRRKVTNRSDAFNMQMRQRKGTLSVNFVDLYVCMFCGRGNNEDKLLLCDGCDDSYHTFCLIPPLPDVPKGDWRCPKCVAEECSKPREAFGFEQAVREYTLQSFGEMADNFKSDYFNMPVHMVPTELVEKEFWRLVSSIEEDVIVEYGADISSKDFGSGFPVKDGRRKILPEEEEYALSGWNLNNMPVLEQSVLAHINVDISGMKVPWLYVGMCFSSFCWHIEDHWSYSINYLHWGEPKTWYGVPSHAAEQLEEVMRELAPELFESQPDLLHQLVTIMNPNVLMEHGVPVYRTNQCAGEFVVTFPRAYHSGFNQGYNFAEAVNFCTADWLPIGRQCVNHYRRLRRHCVFSHEELIFKMAADPECLDVGLAAMVCKELTLMTEEETRLRESVVQMGVLMSEEEVFELVPDDERQCSACRTTCFLSALTCSCNPERLVCLYHPTDLCPCPMQKKCLRYRYPLEDLPSLLYGVKVRAQSYDTWVSRVTEALSANFNHKKDLIELRVMLEDAEDRKYPENDLFRKLRDAVKEAETCASVAQLL
For B1, the Kd in test [1] is 4 µM; in test [2] it was 3 µM.
